Test results reported in ChEMBL document CHEMBL1130356, “A CHROMOGENIC SUBSTRATE FOR THE CONTINUOUS ASSAY OF MAMMALIAN PHOSPHOINOSITIDE-SPECIFIC PHOSPHOLIPASE C” (Bioorg Med Chem Lett, 1997).
Each block holds one molecule with its values, some of them ahead of it.

Tests used:
[1] = biological target: T1, 1-phosphatidylinositol 4,5-bisphosphate phosphodiesterase beta-1 (Homo sapiens) (UniProt Q9NQ66); experiment: Ratio of the kinetic constant kcat to that of KM
T1 sequence (whole entry): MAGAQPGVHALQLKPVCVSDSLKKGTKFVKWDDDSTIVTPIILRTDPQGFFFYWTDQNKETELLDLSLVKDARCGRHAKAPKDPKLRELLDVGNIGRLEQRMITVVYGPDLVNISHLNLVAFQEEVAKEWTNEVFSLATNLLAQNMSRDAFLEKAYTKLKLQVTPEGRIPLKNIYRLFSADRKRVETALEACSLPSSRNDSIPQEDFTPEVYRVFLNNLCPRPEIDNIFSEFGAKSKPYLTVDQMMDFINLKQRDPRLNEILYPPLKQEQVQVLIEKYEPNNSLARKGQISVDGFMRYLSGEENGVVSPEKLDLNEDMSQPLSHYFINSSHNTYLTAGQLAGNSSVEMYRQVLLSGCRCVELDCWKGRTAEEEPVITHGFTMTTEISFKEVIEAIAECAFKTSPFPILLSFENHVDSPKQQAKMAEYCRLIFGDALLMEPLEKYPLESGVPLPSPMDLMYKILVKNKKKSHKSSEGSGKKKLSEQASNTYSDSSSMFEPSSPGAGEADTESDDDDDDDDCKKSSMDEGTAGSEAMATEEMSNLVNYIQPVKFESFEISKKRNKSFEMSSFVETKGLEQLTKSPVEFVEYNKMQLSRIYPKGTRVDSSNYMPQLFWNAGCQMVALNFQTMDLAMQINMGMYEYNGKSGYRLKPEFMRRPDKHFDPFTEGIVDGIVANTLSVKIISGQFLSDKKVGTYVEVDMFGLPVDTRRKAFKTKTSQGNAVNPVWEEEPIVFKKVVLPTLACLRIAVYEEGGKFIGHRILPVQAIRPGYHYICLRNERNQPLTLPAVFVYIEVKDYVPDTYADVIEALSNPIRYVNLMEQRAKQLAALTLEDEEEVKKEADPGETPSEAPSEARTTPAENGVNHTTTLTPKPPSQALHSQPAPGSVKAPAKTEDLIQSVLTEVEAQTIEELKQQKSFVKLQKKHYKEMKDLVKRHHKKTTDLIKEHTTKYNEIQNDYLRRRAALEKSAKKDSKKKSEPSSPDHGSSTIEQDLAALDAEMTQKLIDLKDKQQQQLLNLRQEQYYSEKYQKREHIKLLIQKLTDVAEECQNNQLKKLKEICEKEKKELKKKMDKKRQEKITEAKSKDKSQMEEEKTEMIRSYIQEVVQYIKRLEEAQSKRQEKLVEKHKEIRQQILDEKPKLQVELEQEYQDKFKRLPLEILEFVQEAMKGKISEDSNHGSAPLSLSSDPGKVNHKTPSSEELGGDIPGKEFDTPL

[2] = biological target: T1, 1-phosphatidylinositol 4,5-bisphosphate phosphodiesterase beta-1 (Homo sapiens); experiment: Kinetic constant kcat against human phosphoinositide-specific phospholipase C
[3] = substrate: O=[N+]([O-])c1ccc(OP(=O)(O)O[C@@H]2[C@H](O)[C@H](O)[C@@H](OP(=O)(O)O)[C@H](OP(=O)(O)O)[C@H]2O)cc1; experiment: Michaelis-Menten constant of the compound (D-isomer) was determined against human phosphoinositide-specific phospholipase C
[4] = substrate: O=[N+]([O-])c1ccc(OP(=O)(O)O[C@@H]2[C@H](O)[C@H](O)[C@@H](OP(=O)(O)O)[C@H](OP(=O)(O)O)[C@H]2O)cc1; experiment: Kinetic constant Vmax against human phosphoinositide-specific phospholipase C
[5] = substrate: O=[N+]([O-])c1ccc(OP(=O)(O)O[C@@H]2[C@H](O)[C@H](O)[C@@H](OP(=O)(O)O)[C@H](OP(=O)(O)O)[C@H]2O)cc1; experiment: Michaelis-Menten constant against human phosphoinositide-specific phospholipase C

- Ratio [1]: 83000
- k cat [2]: 112 s⁻¹
Molecule: O=[N+]([O-])c1ccc(OP(=O)(O)O[C@@H]2[C@H](O)[C@H](O)[C@@H](OP(=O)(O)O)[C@H](OP(=O)(O)O)[C@H]2O)cc1 (racemic)

B1: 1-phosphatidylinositol 4,5-bisphosphate phosphodiesterase beta-1 (Homo sapiens), Q9NQ66 (protein)
chain: T1 sequence (whole entry)
- Km [3]: 1350 µM
- Vmax [4]: 78.5 µM/min/mg
- Km [5]: 2700 µM
